{"source": "paper PMC10851751", "about": "“Characterization and insight mechanism of an acid-adapted β-Glucosidase from Lactobacillus paracasei and its application in bioconversion of glycosides” (Frontiers in Bioengineering and Biotechnology, 2024)", "proteins": {"B1": {"name": "LpBgla (Lacticaseibacillus paracasei ATCC 334) (protein)", "chain": "MGVVVSNFHLAKITAEEKVKLTSGKDFWTSEHLADKGIPSFRMSDGPHGLRYQALAADHLGINDSVPSTSFPTASASAAAWDPDLIQAMGKAIGLEAQSLGVDMVLGPGVNMKRNPLCGRNFEYFSEDPFLAGKLGAAWINGIQSQGIAACLKHFAANNQENDRLSSDSLVDPTALHEIYLEAFRIAVTESHPEAVMCSYNKINGTYASDNLYLMTQVLRQQFGFGGAVITDWGALNDKVAALNAGTDLEMPGDDHLFDGEALQAYQQGTLKLASLDRAVTKIAEIARKQRPKFQGSREQLLQANGQLAQKIAESAIVLLKNEAALLPLQATDTVAVIGELAKATRFQGAGSSHINASEIVSVLDGLKQKKVSFDYAAGYRLDDQDDSQATAEALALARNHDKVVFVAGLPDNYESEGFDRQNMALPKVQNDLLQAVTAVNPNVIVLLVAGAPVELPWVDQVKAVVNLSLGGERIGAAAANVLTGAVNPSGKLAESYPLKYQDVPSADVYDKKPRSVPYVESTYIGYRYYDKAKVPVAFPFGFGLSYTSFALKNIQLSSDHVTDDQPLTISLQVTNTGQVDGAEVVQVYVQEQQPRPLRPEKSLKAFKKVFVKAGQTVNVALELKAQAFKEWREQTQTWVLPEAQKAIAVGTSVTNIDAVLPVSFTGETFNNFATIPNWYTTLSGKPSVQDFEQLTDQKVPAPHEFVPGEFTRLNTPREMKKHSLLLRLVAWITVKIRTKDYIDKQGPEAKFQQAIVLDTPLIRLAQQASGALKLSMVDRLVAAANHQYVKMIFR", "notes": "full-length gene (2,388 bp, 796 amino acids), pET28a, His-tagged, E. coli BL21(DE3), Ni-NTA; monomer"}}, "key": {"purified protein": {"substrate": "O=[N+]([O-])c1ccc(O[C@@H]2O[C@H](CO)[C@@H](O)[C@H](O)[C@H]2O)cc1", "assay": "purified protein", "conditions": "pH 5.5, 30°C, 0.5-15 mM substrate, authors note sigmoidal v0 vs [S]"}, "[1]": {"substrate": "COC(=O)C1=CO[C@@H](O[C@@H]2O[C@H](CO)[C@@H](O)[C@H](O)[C@H]2O)[C@@H]2C(CO)=CC[C@H]12", "assay": "HPLC of glucose or aglycone, Michaelis-Menten fit", "assay_type": "biochemical, Lacticaseibacillus paracasei", "conditions": "pH 5.5, 30°C, 0.5-15 mM substrate", "description": "(§1) HPLC of glucose or aglycone, Michaelis-Menten fit on LpBgla"}, "[2]": {"substrate": "O=c1ccc2cc(O[C@@H]3O[C@H](CO)[C@@H](O)[C@H](O)[C@H]3O)c(O)cc2o1", "assay": "HPLC of glucose or aglycone, Michaelis-Menten fit", "assay_type": "biochemical, Lacticaseibacillus paracasei", "conditions": "pH 5.5, 30°C, 0.5-15 mM substrate", "description": "as §1"}, "[3]": {"substrate": "OC[C@H]1O[C@@H](Oc2cc(O)cc(/C=C/c3ccc(O)cc3)c2)[C@H](O)[C@@H](O)[C@@H]1O", "assay": "HPLC of glucose or aglycone, Michaelis-Menten fit", "assay_type": "biochemical, Lacticaseibacillus paracasei", "conditions": "pH 5.5, 30°C, 0.5-15 mM substrate", "description": "as §1"}, "[4]": {"substrate": "OC[C@H]1O[C@@H](Oc2ccc(O)cc2)[C@H](O)[C@@H](O)[C@@H]1O", "assay": "HPLC of glucose or aglycone, Michaelis-Menten fit", "assay_type": "biochemical, Lacticaseibacillus paracasei", "conditions": "pH 5.5, 30°C, 0.5-15 mM substrate", "description": "as §1"}, "[5]": {"substrate": "OCc1ccccc1O[C@@H]1O[C@H](CO)[C@@H](O)[C@H](O)[C@H]1O", "assay": "HPLC of glucose or aglycone, Michaelis-Menten fit", "assay_type": "biochemical, Lacticaseibacillus paracasei", "conditions": "pH 5.5, 30°C, 0.5-15 mM substrate", "description": "as §1"}}, "data": [{"protein": "B1", "values": [{"measurement": "Km", "setting": "purified protein", "value": "1440 ± 80", "unit": "µM"}, {"measurement": "kcat", "setting": "purified protein", "value": "3982 ± 14", "unit": "s⁻¹"}, {"measurement": "kcat/Km", "setting": "purified protein", "value": "2.76e+06", "unit": "M⁻¹ s⁻¹"}, {"measurement": "Km", "setting": "[1]", "value": "2870 ± 50", "unit": "µM"}, {"measurement": "kcat", "setting": "[1]", "value": "2520 ± 23", "unit": "s⁻¹"}, {"measurement": "kcat/Km", "setting": "[1]", "value": 878000, "unit": "M⁻¹ s⁻¹"}, {"measurement": "Km", "setting": "[2]", "value": "3610 ± 80", "unit": "µM"}, {"measurement": "kcat", "setting": "[2]", "value": "2210 ± 38", "unit": "s⁻¹"}, {"measurement": "kcat/Km", "setting": "[2]", "value": 611000, "unit": "M⁻¹ s⁻¹"}, {"measurement": "Km", "setting": "[3]", "value": "5710 ± 100", "unit": "µM"}, {"measurement": "kcat", "setting": "[3]", "value": "1730 ± 45", "unit": "s⁻¹"}, {"measurement": "kcat/Km", "setting": "[3]", "value": 303000, "unit": "M⁻¹ s⁻¹"}, {"measurement": "Km", "setting": "[4]", "value": "1920 ± 30", "unit": "µM"}, {"measurement": "kcat", "setting": "[4]", "value": "3570 ± 72", "unit": "s⁻¹"}, {"measurement": "kcat/Km", "setting": "[4]", "value": "1.86e+06", "unit": "M⁻¹ s⁻¹"}, {"measurement": "Km", "setting": "[5]", "value": "2250 ± 10", "unit": "µM"}, {"measurement": "kcat", "setting": "[5]", "value": "2970 ± 88", "unit": "s⁻¹"}, {"measurement": "kcat/Km", "setting": "[5]", "value": "1.32e+06", "unit": "M⁻¹ s⁻¹"}]}]}
